Data: patent publication US20250002534A1

Molecular target: recombinant LanCL1 (Lanthionine synthetase C-like protein 1) (UniProt O43813)
Experiment: competition: displacement of photoprobe SEQ ID NO:22 from rLANCL1, in-gel fluorescence

Chain of recombinant LanCL1 (Lanthionine synthetase C-like protein 1) (O43813 whole entry): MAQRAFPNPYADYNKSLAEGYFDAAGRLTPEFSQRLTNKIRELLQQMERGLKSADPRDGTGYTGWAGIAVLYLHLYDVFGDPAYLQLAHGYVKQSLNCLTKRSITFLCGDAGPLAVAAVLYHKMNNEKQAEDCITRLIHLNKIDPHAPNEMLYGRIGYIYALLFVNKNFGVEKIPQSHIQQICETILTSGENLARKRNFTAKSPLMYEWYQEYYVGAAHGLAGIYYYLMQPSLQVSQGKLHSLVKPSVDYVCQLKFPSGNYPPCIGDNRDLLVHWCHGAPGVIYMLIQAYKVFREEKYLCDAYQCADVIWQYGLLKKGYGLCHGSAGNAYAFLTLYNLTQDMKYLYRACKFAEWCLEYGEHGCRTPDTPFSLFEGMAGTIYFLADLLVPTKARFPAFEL

ED50 displacement value: > 200 µM
Binder: RALNSS [peptide of SEQ ID NO:39, RALNSS]
